Test results as given in paper PMC12717009.

Legend:
[1] = target: Nup116FG (amino acids 1–725), hydrogel particles (S. cerevisiae) (UniProt Q02630); experiment: FG-hydrogel permeation assay (confocal fluorescence); preformed NupFG hydrogel particles (3.3 µM total NupFG, 5% FMAL-labelled, TBS); Kap95–AF568 in 150 mM NaCl, 100 mM Tris pH 8 added
[2] = target: NPCs isolated from an Mlp1ppxPrA pNup84–mCherry strain expressing Kap95–GFP (S. cerevisiae (endogenous) | S. cerevisiae) (UniProt Q02455); experiment: immunofluorescence of isolated NPCs on coverglass (confocal); isolated NPCs kept in PBS at 4 °C for 0, 24, 48 and 72 h, put on poly-L-lysine coverglass; anti-eGFP–AF647 signal at spots co-localized with anti-mCherry–AF568; single-exponential fit of the loss
[3] = target: isolated native yeast (wild type) nuclear pore complex (S. cerevisiae (endogenous)) (UniProt Q02455); experiment: affinity purification with mass spectrometry; whole NPCs captured through Mlp1-ppx-PrA from cryogenically lysed yeast (20 mM HEPES–KOH pH 7.4, 50 mM potassium acetate, 20 mM NaCl, 2 mM MgCl2, Triton X-100, Tween-20), native elution by protease cleavage; label-free quantitation; +CP (after isolation) compared with −CP (72 h in buffer) NPCs

Substance: Kap95 labelled with Alexa Fluor 568 C5 maleimide (from UniProt Q06142 1-861) (natural protein)
- concentration of Kap95–AF568 in Nup116FG particles [1]: 1.58 µM

Substance: Kap95–GFP expressed under its native promoter (from UniProt Q06142 1-861) (natural protein)
- half-life of dissociation (t1/2) [2]: 20.1 h

Substance: endogenous Kap95 (from UniProt Q06142 1-861) (natural protein)
- stoichiometry N (Kap95 molecules per NPC) [3]: 15 to 20
